# Measurements reported in patent US20190336427A1, “NOVEL PROTEIN TRANSDUCTION DOMAIN AND USE THEREOF” (BIOCELTRAN CO., LTD., priority 2016, published 2019).
# Ends that are not written are not given here.
# Experiments:
# [1] = test system: porcine skin; assay: Skin penetration of cell-penetrating peptide-FGF2 mixture by tissue staining, Franz cells with porcine skin; assay type: in vitro ADME; conditions: 500 μg, 24 hours
# Method: For skin penetration analysis of FGF2 through tissue staining, Franz cells using the porcine skin were treated with equal amounts (500 μg) of FGF2, PEP1-FGF2 and a STeP-FGF2 mixture. After 24 hours, the porcine skin between the Franz cells was taken out, washed with distilled water and subjected to tissue staining. The porcine skin site exposed to donor cells was cut and then immobilized in 10% buffered formalin to produce a paraffin block, and tissues were sectioned to 7 μm using a microtome. Then, the tissues were mounted on a slide, paraffin was removed, the residue was hydrated and tissue fragments were blocked for 30 minutes. The blocked tissues were treated with […] (cell signaling, green) and reacted at 4° C. for 18 hours. On the following day, the resulting tissues were washed with PBST, treated with an Alexa Fluor 488 secondary antibody at room temperature for 2 hours and washed with PBST again. Then, the tissue fragments were dyed with a solution of a nuclear staining reagent (DAPI) diluted at 1/5000 in PBS in the absence of light for 10 minutes and washed with PBS three times. The tissue fragments were mounted and then analyzed with a confocal scanning laser microscope.
# [2] = test system: HaCaT cells; assay: Cytotoxicity of cell-penetrating peptides (WST, cell viability); conditions: HaCaT cells, 2.5, 5 and 10 μM peptide, 24 hours
# Method: Cytotoxicity was evaluated to identify whether or not the peptides of the present invention could be harmlessly used to deliver polymers in vivo.
# HaCaT cells cultured in DMEM containing 10% FBS were seeded in a unit dose of 2.5×10^4 on a 96-well plate, cultured for 24 hours and washed with HBSS twice. Cell-penetrating peptides, PEP1 and STeP, were dissolved at different concentrations of 50 μM, 100 μM and 200 μM in D.W. and diluted in a medium such that the final concentrations reached 2.5 μM, 5 μM and 10 μM, and the cells were treated with the resulting peptides and then reacted for 24 hours at 37° C. in a 5% CO2 incubator. After culture, the supernatant was removed, a WST solution was diluted in a medium in a ratio of 1:9 and the cells were treated with the medium. After culturing for 3 hours, absorbance was measured at 450 nm, and cell viability was calculated for cells of a peptide non-treatment group and cells of a peptide treatment group.
# [3] = biological target: EGF receptors in cells (mouse fibroblasts, Balb/c 3T3 clone A31 cells) (mouse) (UniProt Q01279); assay: cell-based or functional assay
# [4] = test system: porcine skin; assay: Skin penetration of cell-penetrating peptide-FITC mixture, Franz cells with porcine skin; assay type: in vitro ADME; conditions: 100 μM mixture, FITC:peptide molar ratio 1:0 and 1:2
# Method: Franz cells (diameter of 9 mm) were used in order to identify whether or not penetration of FITC into the skin as well as cells was improved under the condition of non-covalent bonding to STeP.
# FITC and cell-penetrating peptides (PEP1, STeP) dissolved in borax buffer (pH 8.0) were prepared. The FITC and cell-penetrating peptides (PEP1, STeP) were mixed in a molar ratio of 1:0 and 1:2, and reacted at 37° C. for 30 minutes, and the top of Franz cells were treated with 100 μM of the finally obtained cell-penetrating peptide-FITC mixture. The porcine skin was isolated and washed with PBS three times. After washing, the cryo mold was treated with an OCT embedding matrix (Cell Path Ltd., UK) and tissues were frozen at −70° C. The frozen tissues were cross-sectioned to a thickness of 7 μm at −20° C. using a cryotome (HM520, Germany) to produce fragment slides. To dye the nucleus of the skin cells, tissue fragments fixed to a slide glass were dyed with a solution of a nuclear staining reagent (DAPI) diluted at 1/5000 in PBS in the absence of light for 10 minutes and washed with PBS three times. The resulting cells were mounted and then analyzed with a confocal scanning laser microscope.
substance,measurement,setting,value
"FGF2: fibroblast growth factor-2, basic fibroblast growth factor",skin penetration of FGF2 (delivery into porcine skin tissues),[1],not delivered into porcine skin tissues at all
KETWWETWWTEWSQPYGRKKRRQRRRC [STeP],cytotoxicity (cell viability),[2],did not exhibit cytotoxicity
PEP1-EGF recombinant protein (from UniProt P01133 23-1207) (ligand),"Cell proliferation activity (unit/mM), WST assay on Balb/c 3T3 clone A31 cells",[3],1.39e+07 unit/mM
fluorescein isothiocyanate [FITC],skin penetration of FITC,[4],present in the cornified layer of the porcine skin
